Among the data in patent US20200197469A1 are Kd and IC50 in MAGI infectivity assay, HIV-1 lab strain NL4-3 values, retold here.

Experiment [1] has as its target purified HIV-1 gp120 (HIV-1). The experiment can be described thus: SPR (Biacore); gp120 immobilized on the chip, MOMO30 flowed at 6.25 nM to 200 nM; triplicate on separate days. Background: In SPR one partner is held on a chip, and binding of the other changes the refractive index at the surface.
Experiment [2] addresses purified HIV-1 gp120 (HIV-1). As to the kind of experiment: cell-based or functional assay.

MOMO30 protein from Momordica balsamina: the Kd in experiment [1] was 5.8 µM. The IC50 in MAGI infectivity assay, HIV-1 lab strain NL4-3 in experiment [2] is 32 pM.

A word on the Kd: it is the free concentration of one partner at which half of the binding sites on the other are occupied at equilibrium, for simple one-to-one binding.
